Experimental data published in the supplement of paper PMC7125110.
± gives the standard error. This sample holds only a part of the variants without activity.

B1: glmS ribozyme (parent)
chain: AUAAAAGCGCCAGAACUACAGAAAUGUAGUUGACGAGGAGGAGGUUUAUCGAAUUUUCGGCGGAUGCCUCCAAA

Variants of: B1
Assay: self-cleavage kobs at 10000 uM GlcN6P; higher = faster cleavage; RNA array
Conditions: with glucosamine-6-phosphate
Summary of the method: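 Weighted Michaelis–Menten fits across concentrations supplied kcat and KM, based on kobs from one- or two-exponential decay fits to normalised per-tile medians. The data came from barcoded ribozyme variants transcribed in situ by E. coli RNA polymerase on sequenced MiSeq chips and tracked at 37 °C by a hybridised Cy3 probe. Glucosamine-6-phosphate (40 μM to 10 mM) in HEPES/KCl/Mg(OAc)2 buffer was flowed in.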

Variant | self-cleavage kobs at 10000 uM GlcN6P [s⁻¹]
AUAAAAGCGCCAUAACUACAGAAAUGUAGUUGACGAGGAGGAGGUUUAUCGAAGUUUCGGCGGAUGUCUCCAAA [G13U U54G C67U] | 0.000238 ± 4.9e-05
AUAAAAGCGCCACAACUACAGAAAUGUAGUUGACGAGGAGGAGGUUGAUCGAAUUUUCGGCGGAUGCCUUCAAA [G13C U47G C70U] | 5.23e-05 ± 1.4e-05
AUAAAAGCGCCAGAUCUACAGAAAUGUAGUUGACGAGGAGGAACGUUAUCGAAUUUUCGGCGGAUGCCUCCAAA [A15U G43A G44C U45G] | < 1e-05
AUAAAAGCGCCAGCACUACAGAAAUGUAGUUAACGAGGAGGAGGUUUAUCGAAUUUUCGGCGGAUGCCGCCAAA [A14C G32A U69G] | 7e-05 ± 1.6e-05
AUAAAAGCGCCAGAGCUACAGAAAUGUAGUUGACGAGGAGGUGGUUUAUCGAAUUUUCGGCGGAUGCCACCAAA [A15G A42U U69A] | 0.00624 ± 0.0018
AUAAAAGCGCCAGAUCUACAGAAAUGUACUUGACGAGGAGGAGGUUUAUCGAAUUUUAGGCGGAUGCCUCCAAA [A15U G29C C58A] | 6.87e-05 ± 2.7e-05
AUAAAAGCGCCAGCACUACAGAAAUGUAGUUGACGAGGAGGAGGUUUAUCGAAUUUUCGUCGGAUGCCUACAAA [A14C G60U C70A] | < 1e-05
AUAAAAGCGCCAGAGCUACAGAAAUGUAGUCGACGAGCAGGAGGUUUAUCGAAUUUUCGGCGAAUGCCUCCAAA [A15G U31C G38C G63A] | < 1e-05
AUAAAAGCGCCAGCACUACAGAAAUGUAGUUGACGAGGUGGAGGUUUAUCGAGUUUUCGGCGGAUGCCUCCAAA [A14C A39U A53G] | 0.00135 ± 0.0004
AUAAAAGCGCCAGAUUUACAGAAAUGUAUUUGACGAGGAGGAGGUUUAUCGAAUUUUCGGCGGAUGACUCCAAA [A15U C16U G29U C67A] | 0.00151 ± 0.00034
AUAAAAGCGCCAGAUCUACAGAAAUGUAGUUGACGAAGAGGAGGUUAAUCGAAUUUUCGGCGGAUGGCUGCAAA [A15U G37A U47A C67G C70G] | < 1e-05
AUAAAAGCGCCAGACCUACAGAAAUGUAGCUGACGAGGAGGAGGUUUAUCGAAUUUUCGGCUGAUGCCUCCAAA [A15C U30C G62U] | < 1e-05
AUAAAAGCGCCAGAGCUACAGAAAUGUAGGUGACGAGGAGGAGGUCUAUCGAAUUUUCGGCGGAUGCCUCCAAA [A15G U30G U46C] | 0.000407 ± 0.0001
AUAAAAGCGCCACAACUACAGAAAUGUAGUUGACGAGAAGGACGUUUAUCGAAUUUUCGGUGGAUGCCUCCAAA [G13C G38A G43C C61U] | < 1e-05
AUAAAAGCGCCAUAACUACAGAAAUGUAGUUGACGAGGUGGAGGUUUAUCGAUUUUUCGGCGGAUGGCUCCAAA [G13U A39U A53U C67G] | 4.97e-05 ± 1.8e-05
AUAAAAGCGCCAGGACUACAGAAAUGUAGUUGACGAGGAGGAGGUUUAUCGAAUUCUCGGCGGAUGCCCCCAAA [A14G U56C U69C] | 0.000368 ± 9.1e-05
AUAAAAGCGCCAGAUCUACAGAAAUGUAGUUGACGAGGAGGAGGUUUAUAGAAUUUUCGGCGGAUGUCUCCAAA [A15U C50A C67U] | < 1e-05
AUAAAAGCGCCAUAACUACAGAAAUGUAGUUGACGAGGAGGAUGUUUAUCGAAUUUUCGGCGGUUGCCUCCAAA [G13U G43U A64U] | < 1e-05
AUAAAAGCGCCAGCACUACAGAAAUGUAGUUUACGAGGAGGAGGUUUAUCGAAUUUUCGGCGGAGGCCUCCAAA [A14C G32U U65G] | 0.000125 ± 3e-05

Variant | self-cleavage kobs at 10000 uM GlcN6P [s⁻¹]
AUAAAAGCGCCAGUACUACAGAAAUGUAGUUGACGAAGAGGACGUUUAUCGAAUUUUCCGCGGAUGCCUCCAAA [A14U G37A G43C G59C] | < 1e-05
AUAAAAGCGCCAGACCUACAGAAAUGUAGUUGACGAGGAGGACGUUUAUCAAAUUUUGGGCGGAUGCCUCCAAA [A15C G43C G51A C58G] | < 1e-05
AUAAAAGCGCCAGAGCUACAGAAAUGUAGUUGACGAGGAGGAGGUUUAUCGAACUUUCGGCGGAUGCCUCGAAA [A15G U54C C71G] | 0.000924 ± 0.00024
AUAAAAGCGCCAGAGCUACAGAAAUGUAGUUGACGAGGGGGAGGUUUAUCGAAUAUUUGGCGGAUGCCUCCAAA [A15G A39G U55A C58U] | 2.43e-05 ± 1.1e-05
AUAAAAGCGCCACAACUACAGAAAUGUAUUUGACGAGGAGGAGGUUUAUCGAAUUUUCGGCGGAUACCUCUAAA [G13C G29U G66A C71U] | 3.46e-05 ± 1.2e-05
AUAAAAGCGCCAGAGCUACAGAAAUGUACUUGACGAGGAGGAGCUUUAUCGAAUUUUCGGCGGAUGCCUCCAAA [A15G G29C G44C] | < 1e-05
AUAAAAGCGCCAGAUCUACAGAAAUGUAGUUCACGAGGAGGAGGUUUAUCGAAUUUUCGGCGGAUGCCUCUAAA [A15U G32C C71U] | 8.58e-05 ± 2e-05
AUAAAAGCGCCAGACCUACAGAAAUGUAGUUGACGAGGAGGAGGUCUAUCGAAUUUUCGGCUGAUGCCUCCAAA [A15C U46C G62U] | < 1e-05
AUAAAAGCGCCAGGGCUACAGAAAUGUAGUUGUCGAGGAGGAGGUUUAUCGAAUUUUCGGCGGAUGCCUCCAAA [A14G A15G A33U] | 8.09e-05 ± 1.9e-05
AUAAAAGCGCCAGACCUACAGAAAUGUAGGUGACGAGGAGGAGGUUUAUCGAAUUUUCGGCGGAUGCGUCCAAA [A15C U30G C68G] | 0.000435 ± 0.00015
AUAAAAGCGCCAGAUCUACAGAAAUGUAGUUUACGAGGAGGAGGUUUAUCGAAUUUUCGGCGGAUACCUCCAAA [A15U G32U G66A] | 0.000174 ± 4e-05
AUAAAAGCGCCACAACUACAGAAAUGUAGUUGACCAGGAGGAGGUUUACCGAAUUUUCGGCGGAUGCCUCCAAA [G13C G35C U49C] | < 1e-05
AUAAAAGCGCCAGGACUACAGAAAUGUAGUCGACGAGGAGGAGGUUUAUCGAAUUUUAGGCGGAUGCUUUCAAA [A14G U31C C58A C68U C70U] | 3.74e-05 ± 1.6e-05
AUAAAAGCGCCAGUACUACAGAAAUGUAGUUGACGAGGAGGAGGUUUAUCGUACUUUCGGCGGAUGCCUCCAAA [A14U A52U U54C] | 0.000114 ± 1.6e-05
AUAAAAGCGCCAGAGCUACAGAAAUGUAGUUGACAAGGAGGAGGUUUAUCGAAUUUGCGGCAGAUGCCUCCAAA [A15G G35A U57G G62A] | < 1e-05
AUAAAAGCGCCAGUACUACAGAAAUGUAGUUGACGAGGCGGAGGUUUAUCGAAUUUUCGGCGGAUUCCUCCAAA [A14U A39C G66U] | 0.000116 ± 2.2e-05
AUAAAAGCGCCAGACCUACAGAAAUGUAGUUGGCGAGGAGGAGGUUUCUCGAAUUUUCGGCGGUUGCCUCCAAA [A15C A33G A48C A64U] | < 1e-05
AUAAAAGCGCCAUAACUACAGAAAUGUAGUUGACGAAGAGGAGGUUUAUUGAAUUUUCGGCGGAUGCCACCAAA [G13U G37A C50U U69A] | < 1e-05
